Experimental data as given in paper PMC2171506.

Target: CYK-4/MgcRacGAP (UniProt Q9H0H5)
Experiment: myc IP, anti-CYK-4 Western blot
Conditions: reference: E6 wild type; sites T342

Chain of UniProt Q9H0H5 (Q9H0H5 whole entry, looked up): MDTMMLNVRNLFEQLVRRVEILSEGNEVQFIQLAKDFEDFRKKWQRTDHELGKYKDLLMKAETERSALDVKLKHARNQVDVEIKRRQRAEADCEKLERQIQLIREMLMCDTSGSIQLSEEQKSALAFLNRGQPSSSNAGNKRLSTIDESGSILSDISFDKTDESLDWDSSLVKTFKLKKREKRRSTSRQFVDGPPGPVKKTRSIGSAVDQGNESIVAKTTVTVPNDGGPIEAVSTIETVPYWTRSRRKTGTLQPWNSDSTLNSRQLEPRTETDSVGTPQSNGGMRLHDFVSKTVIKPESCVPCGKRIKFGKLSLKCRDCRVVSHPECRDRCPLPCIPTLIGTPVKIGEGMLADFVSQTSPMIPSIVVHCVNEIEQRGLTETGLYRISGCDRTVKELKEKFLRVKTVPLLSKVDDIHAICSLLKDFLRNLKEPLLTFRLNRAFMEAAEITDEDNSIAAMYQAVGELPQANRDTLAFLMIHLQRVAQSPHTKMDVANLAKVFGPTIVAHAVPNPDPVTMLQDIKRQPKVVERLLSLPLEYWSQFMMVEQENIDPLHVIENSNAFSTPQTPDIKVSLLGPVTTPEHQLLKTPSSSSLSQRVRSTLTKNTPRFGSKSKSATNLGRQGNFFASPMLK

binding against the reference: stronger
Substance: ECT2 E6, 1-352 (from UniProt Q9H8V3-4) E6* (T342A)
